# From paper PMC5124963, “Negative feedback regulation of ABA biosynthesis in peanut (Arachis hypogaea): a transcription factor complex inhibits AhNCED1 expression during water stress”
# T1: GST-AhAREB1 (Arachis hypogaea, UniProt G4X5C6 1-445)
# T1 sequence: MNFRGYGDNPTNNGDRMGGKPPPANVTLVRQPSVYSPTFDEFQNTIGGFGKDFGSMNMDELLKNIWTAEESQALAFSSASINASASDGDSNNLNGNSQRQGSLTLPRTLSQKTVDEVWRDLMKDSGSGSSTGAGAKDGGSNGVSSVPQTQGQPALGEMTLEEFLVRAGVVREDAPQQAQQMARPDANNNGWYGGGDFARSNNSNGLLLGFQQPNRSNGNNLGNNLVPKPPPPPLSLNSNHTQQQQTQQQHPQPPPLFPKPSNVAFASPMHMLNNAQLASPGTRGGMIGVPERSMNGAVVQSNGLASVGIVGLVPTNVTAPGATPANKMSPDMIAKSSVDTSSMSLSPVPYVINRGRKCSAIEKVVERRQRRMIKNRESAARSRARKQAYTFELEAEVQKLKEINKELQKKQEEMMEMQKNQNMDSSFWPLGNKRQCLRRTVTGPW
# Biological target: T1, GST-AhAREB1
# Experiment: EMSA; LightShift Chemiluminescent EMSA kit (Pierce); buffer, salt, pH and temperature not stated
# Conditions: protein: recombinant; tags: N-terminal GST (pGEX-4T-1); chain copies: 2; label: biotin
binder,measurement,value
"WT probe, AhNCED1 promoter ABRE/NACRE (-1367) (dsDNA) DNA 1: CTCATCAATTATCACGTGTGATTGCTCTCA DNA 2: TGAGAGCAATCACACGTGATAATTGATGAG",binding result,binds
